In assay [1] the target is T1, Cynomolgus monkey CD1a protein (Cynomolgus monkey).
T1 chain: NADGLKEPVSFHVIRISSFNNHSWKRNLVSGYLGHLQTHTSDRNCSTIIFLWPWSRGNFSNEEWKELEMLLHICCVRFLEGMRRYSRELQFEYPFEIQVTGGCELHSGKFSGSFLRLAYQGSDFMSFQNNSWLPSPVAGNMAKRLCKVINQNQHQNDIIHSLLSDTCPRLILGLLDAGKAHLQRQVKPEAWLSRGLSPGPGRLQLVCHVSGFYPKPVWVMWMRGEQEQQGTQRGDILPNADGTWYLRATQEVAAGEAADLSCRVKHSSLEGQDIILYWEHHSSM
The experiment in a line: ELISA, 0.01 µg/ml antibody.

Assay [2] has as its target Chinese variant CD1a protein (human) (UniProt P06126). Put plainly: ELISA, 0.01 µg/ml antibody. (In general: An ELISA detects its analyte on a solid surface through an enzyme-linked reagent.)
In assay [3] the target is Cynomolgus monkey CD1a expressed on HEK-293 cells (Cynomolgus monkey, UniProt A0A2K5VQ68 17-326). Put plainly: flow cytometry, HEK-293 cells, 1 µg/ml antibody. (A flow cytometer gives signals particle by particle.)
Chain of Cynomolgus monkey CD1a expressed on HEK-293 cells (A0A2K5VQ68 entry or part of it): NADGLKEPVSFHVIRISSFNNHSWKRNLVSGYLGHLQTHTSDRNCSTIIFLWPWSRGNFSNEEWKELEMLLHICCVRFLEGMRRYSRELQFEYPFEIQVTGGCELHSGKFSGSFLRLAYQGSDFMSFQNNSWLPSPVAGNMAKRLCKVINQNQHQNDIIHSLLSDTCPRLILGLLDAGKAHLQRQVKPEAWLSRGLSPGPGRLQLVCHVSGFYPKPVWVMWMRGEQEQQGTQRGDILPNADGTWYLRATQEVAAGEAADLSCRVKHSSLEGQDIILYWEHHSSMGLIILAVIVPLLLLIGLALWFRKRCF
In assay [4] the target is Chinese variant CD1a protein (human) (UniProt P06126). Put plainly: ELISA, 0.1 µg/ml antibody.
Chain of Chinese variant CD1a protein (human) (P06126 18-295, change not shown): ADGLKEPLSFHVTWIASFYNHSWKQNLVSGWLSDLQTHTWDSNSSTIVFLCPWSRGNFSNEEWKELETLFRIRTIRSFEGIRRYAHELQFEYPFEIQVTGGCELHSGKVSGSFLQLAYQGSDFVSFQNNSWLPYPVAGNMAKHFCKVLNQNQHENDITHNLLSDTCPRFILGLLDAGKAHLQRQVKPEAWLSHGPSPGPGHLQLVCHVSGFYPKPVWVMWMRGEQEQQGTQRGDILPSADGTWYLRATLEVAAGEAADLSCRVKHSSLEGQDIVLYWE
Assay [5] deals with T2, human CD1a expressed on cells (human, UniProt P06126 17-327; P61769 21-119).
T2 construct: also called HEK - CD1a; C1R - CD1a
The experiment in a line: flow cytometry, MOLT4 cells, 10 µg/ml antibody.

A further assay has as its target T3, CD1a[H86 A] (human, UniProt P06126 18-295, limits assumed).
T3 construct: also called point mutant CD1a[H86A]
T3 chain: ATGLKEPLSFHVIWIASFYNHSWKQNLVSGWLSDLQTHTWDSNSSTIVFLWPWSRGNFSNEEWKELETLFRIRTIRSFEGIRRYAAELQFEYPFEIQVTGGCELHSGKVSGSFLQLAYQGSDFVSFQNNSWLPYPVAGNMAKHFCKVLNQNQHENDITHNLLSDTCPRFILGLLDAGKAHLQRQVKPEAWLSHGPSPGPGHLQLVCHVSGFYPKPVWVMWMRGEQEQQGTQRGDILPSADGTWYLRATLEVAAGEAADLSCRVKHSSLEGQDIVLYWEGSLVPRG
The experiment in a line: epitope mapping experiments (not described).

B1: 116 (VR12117) (antibody, V domains shown)
VH: QSVEESGGRLVTPGTPLTLTCTVSGFSLSNYAMSWVRQAPGKGLEWIGIIYTTGFTYYASWVKGRFTISKTSTTVDLKITSPTTEDTATYFCARGLATYVSPPTRLDLWGQGTLVTVSS
VL: AQVLTQTPSPVSAAVGGTVTINCQASQSIYNSKNLAWYQQKPGQPPKLLIYSASTLASGVPSRFKGSGSGTQFTLTISDLECDDAATYYCQGEFSCSSVDCATFGGGTEVVVK
notes: also called OX116
Turning to B1, the figures for the “Optical Density (OD)” value in assay [1], in assay [2] and in assay [4] were 0.07 OD, 1.47 OD and 1.53 OD, respectively. In addition, the “Fluorescence Intensity Geomean (normalized to background)” value in assay [3] is 0.8 fold over background; in assay [5], 11.7 fold over background.

B2: 77A (VR11851) (antibody, V domains shown)
VH: QSVEESGGRLVTPGTPLTLTCTVSGFSLSSYAMSWVRQAPGKGLEWIGIISSSGTTYYASWAKGRFTISKTSTTVDLKITSPTTEDTATYFCARVDYYSSGWGGLWGPGTLVTVSS
VL: AVEMTQTPASMSAAVGGTVTIKCQASEDIYSNLAWYQQKPGQPPKLLIYGASTLASGVPSRFKGSGSGTEYTLTISGVQCDDAATYYCQCTYDTSSYGNTFGGGTEMVVE
notes: also called OX77a; antibody 77a
Regarding B2, the “Optical Density (OD)” value in assay [1] was found to be 0.1 OD; in assay [2], 0.79 OD; in assay [4] it was 1.05 OD. Moreover, the “Fluorescence Intensity Geomean (normalized to background)” value came out at 10.6 fold over background in assay [3] and 4.1 fold over background in assay [5].

B3: 111 (VR12113) (antibody, V domains shown)
VH: QSVEESGGRLVTPGTPLTLTCTASGFSLSTYAMSWVRQAPGKGLEWIGIISSSGSTYYASWAKGRFTISKTSTTVDLKITSPTTEDTATYFCARETWYWLDLWGQGTLVTVSS
VL: AVEMTQTPASVSAAVGGTVTINCQASEDIYSNLAWYQQKPGQPPKLLIYGASTLASGVPSRFKGSGSGTEYTLTISGVQCDDAATYYCQCAYDSSSYGTPFGGGTEVVVK
notes: also called OX111
As for B3, the “Optical Density (OD)” value in assay [1] was found to be 0.48 OD; in assay [2], 1.33 OD; in assay [4] it was 1.52 OD. Besides, the “Fluorescence Intensity Geomean (normalized to background)” value in assay [3] amounted to 12.9 fold over background; in assay [5] it was 9.3 fold over background.

B4: 110 (VR12112) (antibody, V domains shown)
VH: QSVEESGGRLVTPGTPLTLTCTVSGFSLSSYAMIWVRQAPGKGLEWIGIINSSDNTHYATWAKGRFTISKTSTTVDLKITSPTTEDTATYFCARDPYDYGYGWYFDLWGPGTLVTVSS
VL: AQVLTQTPSPVSAAVGGTVTINCQASQSVFNNKNLAWYQQKPGQPPKLLIYKASTLASGVSSRFKGSGSGTQFALTISGVQCDDAATYYCQGEFSCSSTDCVTFGGGTEVVVK
notes: also called OX110; antibody 110
For the molecule B4, the “Optical Density (OD)” value in assay [1] stood at 0.22 OD; in assay [2], 1.4 OD; in assay [4], 1.57 OD. Besides, in the assay with CD1a[H86 A], the binding result was “no binding”. The “Fluorescence Intensity Geomean (normalized to background)” value in assay [5] stood at 14.7 fold over background.

For the origin of these results see US20250289893A1 (OXFORD UNIVERSITY INNOVATION, published 2025).
